Measurements reported in PMC9212699.

Tests used:
[1] = biological target: BA.2 RBD with the S408R mutation (SARS-CoV-2); assay: SPR
[2] = biological target: SARS-CoV-2 Omicron BA.3 RBD protein with His-tag, spike residues 319-541 (SARS-CoV-2); assay: SPR

Sequence of Human ACE2 protein, residues 19-615 (produced by HEK293F cells, used for SPR) (Q9BYF1 19-615): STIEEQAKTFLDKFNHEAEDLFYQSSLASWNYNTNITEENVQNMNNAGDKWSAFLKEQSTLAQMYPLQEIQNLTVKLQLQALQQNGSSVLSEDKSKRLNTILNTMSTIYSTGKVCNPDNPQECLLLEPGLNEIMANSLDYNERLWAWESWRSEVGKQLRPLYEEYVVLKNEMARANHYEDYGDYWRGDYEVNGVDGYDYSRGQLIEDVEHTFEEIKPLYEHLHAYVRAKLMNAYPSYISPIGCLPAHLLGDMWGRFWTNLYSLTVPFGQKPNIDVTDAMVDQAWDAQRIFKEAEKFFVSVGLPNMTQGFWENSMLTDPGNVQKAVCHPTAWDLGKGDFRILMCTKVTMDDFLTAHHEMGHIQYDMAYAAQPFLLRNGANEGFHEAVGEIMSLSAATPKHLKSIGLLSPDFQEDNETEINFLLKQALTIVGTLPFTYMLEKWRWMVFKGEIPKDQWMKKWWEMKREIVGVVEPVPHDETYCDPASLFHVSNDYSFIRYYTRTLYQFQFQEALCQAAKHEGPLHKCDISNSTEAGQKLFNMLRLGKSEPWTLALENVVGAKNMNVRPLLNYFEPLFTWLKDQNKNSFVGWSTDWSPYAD

Question: How did the Kd [1] turn out when “Human ACE2 protein, residues 19-615 (produced by HEK293F cells, used for SPR) (from UniProt Q9BYF1-1 19-615) (receptor)” was run?
Answer: Its Kd is 16.4 nM.

Question: What about the Kd [2] of the same substance?
Answer: Its Kd is 22.1 nM.
